# How the values were obtained:
# HeLa Kyoto [1] = experiment: solubility change mitosis vs G1/S (difference of NP-40 vs SDS log2 ratios) (log2 ratio difference); higher = more soluble in mitosis
# HeLa Kyoto [2] = experiment: solubility in G1/S (NP-40 vs SDS abundance) (log2 ratio); higher = more soluble; settings: cell cycle stage: G1/S
# 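Throughout, for solubility change mitosis vs G1/S (difference of NP-40 vs SDS log2 ratios): synchronized HeLa Kyoto cells (double thymidine block for G1/S, nocodazole release for mitosis), protein amounts in NP-40 versus SDS lysates quantified by mass spectrometry, three biological replicates.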
# 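Throughout, for solubility in G1/S (NP-40 vs SDS abundance): HeLa Kyoto cells arrested at G1/S by double thymidine block, proteins quantified by TMT10plex mass spectrometry in mild NP-40 versus SDS extracts, three biological replicates.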
# Chain of HOXC10 (chain, as listed by the source): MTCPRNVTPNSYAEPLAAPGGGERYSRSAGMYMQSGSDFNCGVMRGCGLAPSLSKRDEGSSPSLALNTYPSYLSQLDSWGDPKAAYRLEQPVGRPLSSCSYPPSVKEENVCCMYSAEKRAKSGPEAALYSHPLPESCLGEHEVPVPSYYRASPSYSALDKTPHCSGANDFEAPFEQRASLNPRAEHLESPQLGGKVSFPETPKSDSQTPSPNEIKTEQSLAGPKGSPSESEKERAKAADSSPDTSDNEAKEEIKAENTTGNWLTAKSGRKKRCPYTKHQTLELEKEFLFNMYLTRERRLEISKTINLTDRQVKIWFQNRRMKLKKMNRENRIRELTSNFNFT
Substance,solubility change mitosis (log2) (HeLa Kyoto [1]),solubility in G1/S (log2) (HeLa Kyoto [2])
MWSLTASEGESTTAHFFLGAGDEGLGTRGIGMRPEESDSELLEDEEDEVPPEPQIIVGICAMTKKSKSKPMTQILERLCRFDYLTVVILGEDVILNEPVENWPSCHCLISFHSKGFPLDKAVAYSKLRNPFLINDLAMQYYIQDRREVYRILQEEGIDLPRYAVLNRDPARPEECNLIEGEDQVEVNGAVFPKPFVEKPVSAEDHNVYIYYPSSAGGGSQRLFRKIGSRSSVYSPESSVRKTGSYIYEEFMPTDGTDVKVYTVGPDYAHAEARKSPALDGKVERDSEGKEIRYPVMLTAMEKLVARKVCVAFKQTVCGFDLLRANGHSFVCDVNGFSFVKNSMKYYDDCAKILGNTIMRELAPQFQIPWSIPTEAEDIPIVPTTSGTMMELRCVIAIIRHGDRTPKQKMKMEVKHPRFFALFEKHGGYKTGKLKLKRPEQLQEVLDITRLLLAELEKEPGGEIEEKTGKLEQLKSVLEMYGHFSGINRKVQLTYYPHGVKASNEGQDPQRETLAPSLLLVLKWGGELTPAGRVQAEELGRAFRCMYPGGQGDYAGFPGCGLLRLHSTFRHDLKIYASDEGRVQMTAAAFAKGLLALEGELTPILVQMVKSANMNGLLDSDGDSLSSCQHRVKARLHHILQQDAPFGPEDYDQLAPTRSTSLLNSMTIIQNPVKVCDQVFALIENLTHQIRERMQDPRSVDLQLYHSETLELMLQRWSKLERDFRQKSGRYDISKIPDIYDCVKYDVQHNGSLGLQGTAELLRLSKALADVVIPQEYGISREEKLEIAVGFCLPLLRKILLDLQRTHEDESVNKLHPLCYLRYSRGVLSPGRHVRTRLYFTSESHVHSLLSVFRYGGLLDETQDAQWQRALDYLSAISELNYMTQIVIMLYEDNTQDPLSEERFHVELHFSPGVKGVEEEGSAPAGCGFRPASSENEEMKTNQGSMENLCPGKASDEPDRALQTSPQPPEGPGLPRRSPLIRNRKAGSMEVLSETSSSRPGGYRLFSSSRPPTEMKQSGLGSQCTGLFSTTVLGGSSSAPNLQDYARSHGKKLPPASLKHRDELLFVPAVKRFSVSFAKHPTNGFEGCSMVPTIYPLETLHNALSLRQVSEFLSRVCQRHTDAQAQASAALFDSMHSSQASDNPFSPPRTLHSPPLQLQQRSEKPPWYSSGPSSTVSSAGPSSPTTVDGNSQFGFSDQPSLNSHVAEEHQGLGLLQETPGSGAQELSIEGEQELFEPNQSPQVPPMETSQPYEEVSQPCQEVPDISQPCQDISEALSQPCQKVPDISQQCQENHDNGNHTCQEVPHISQPCQKSSQLCQKVSEEVCQLCLENSEEVSQPCQGVSVEVGKLVHKFHVGVGSLVQETLVEVGSPAEEIPEEVIQPYQEFSVEVGRLAQETSAINLLSQGIPEIDKPSQEFPEEIDLQAQEVPEEIN [PPIP5K1],-0.212,-0.000791
MEKSWMLWNFVERWLIALASWSWALCRISLLPLIVTFHLYGGIILLLLIFISIAGILYKFQDVLLYFPEQPSSSRLYVPMPTGIPHENIFIRTKDGIRLNLILIRYTGDNSPYSPTIIYFHGNAGNIGHRLPNALLMLVNLKVNLLLVDYRGYGKSEGEASEEGLYLDSEAVLDYVMTRPDLDKTKIFLFGRSLGGAVAIHLASENSHRISAIMVENTFLSIPHMASTLFSFFPMRYLPLWCYKNKFLSYRKISQCRMPSLFISGLSDQLIPPVMMKQLYELSPSRTKRLAIFPDGTHNDTWQCQGYFTALEQFIKEVVKSHSPEEMAKTSSNVTII [ABHD13],-0.176,-0.091
MNRIRIHVLPTNRGRITPVPRSQEPLSCAFTHRPCSHPRLEGQEFCIKHILEDKNAPFKQCSYISTKNGKRCPNAAPKPEKKDGVSFCAEHVRRNALALHAQMKKTNPGPVGETLLCQLSSYAKTELGSQTPESSRSEASRILDEDSWSDGEQEPITVDQTWRGDPDSEADSIDSDQEDPLKHAGVYTAEEVALIMREKLIRLQSLYIDQFKRLQHLLKEKKRRYLHNRKVEHEALGSSLLTGPEGLLAKERENLKRLKCLRRYRQRYGVEALLHRQLKERRMLATDGAAQQAHTTRSSQRCLAFVDDVRCSNQSLPMTRHCLTHICQDTNQVLFKCCQGSEEVPCNKPVPVSLSEDPCCPLHFQLPPQMYKPEQVLSVPDDLEAGPMDLYLSAAELQPTESLPLEFSDDLDVVGDGMQCPPSPLLFDPSLTLEDHLVKEIAEDPVDILGQMQMAGDGCRSQGSRNSEKASAPLSQSGLATANGKPEPTSIS [KANSL2],-0.0302,0.453
MDEDEFELQPQEPNSFFDGIGADATHMDGDQIVVEIQEAVFVSNIVDSDITVHNFVPDDPDSVVIQDVVEDVVIEEDVQCSDILEEADVSENVIIPEQVLDSDVTEEVSLPHCTVPDDVLASDITSTSMSMPEHVLTSESMHVCDIGHVEHMVHDSVVEAEIITDPLTSDIVSEEVLVADCAPEAVIDASGISVDQQDNDKASCEDYLMISLDDAGKIEHDGSTGVTIDAESEMDPCKVDSTCPEVIKVYIFKADPGEDDLGGTVDIVESEPENDHGVELLDQNSSIRVPREKMVYMTVNDSQQEDEDLNVAEIADEVYMEVIVGEEDAAVAAAAAAVHEQQIDEDEMKTFVPIAWAAAYGNNSDGIENRNGTASALLHIDESAGLGRLAKQKPKKKRRPDSRQYQTAIIIGPDGHPLTVYPCMICGKKFKSRGFLKRHMKNHPEHLAKKKYHCTDCDYTTNKKISLHNHLESHKLTSKAEKAIECDECGKHFSHAGALFTHKMVHKEKGANKMHKCKFCEYETAEQGLLNRHLLAVHSKNFPHICVECGKGFRHPSELRKHMRIHTGEKPYQCQYCEYRSADSSNLKTHIKTKHSKEMPFKCDICLLTFSDTKEVQQHTLVHQESKTHQCLHCDHKSSNSSDLKRHVISVHTKDYPHKCEMCEKGFHRPSELKKHVAVHKGKKMHQCRHCDFKIADPFVLSRHILSVHTKDLPFRCKRCRKGFRQQNELKKHMKTHSGRKVYQCEYCEYSTTDASGFKRHVISIHTKDYPHRCEYCKKGFRRPSEKNQHIMRHHKEVGLP [ZFY],0.257,-0.668
CHD2,0.389,-1.9
MVTNKMTAAFRNPSGKQVATDKVAEKLSSTLSWVKNTVSHTVSQMASQVASPSTSLHTTSSSTTLSTPALSPSSPSQLSPDDLELLAKLEEQNRLLETDSKSLRSVNGSRRNSGSSLVSSSSASSNLSHLEEDSWILWGRIVNEWEDVRKKKEKQVKELVHKGIPHHFRAIVWQLLCSAQSMPIKDQYSELLKMTSPCEKLIRRDIARTYPEHNFFKEKDSLGQEVLFNVMKAYSLVDREVGYCQGSAFIVGLLLMQMPEEEAFCVFVKLMQDYRLRELFKPSMAELGLCMYQFECMIQEHLPELFVHFQSQSFHTSMYASSWFLTIFLTTFPLPIATRIFDIFMSEGLEIVFRVGLALLQMNQAELMQLDMEGMLQHFQKVIPHQFDGVPDKLIQAAYQVKYNSKKMKKLEKEYTTIKTKEMEEQVEIKRLRTENRLLKQRIETLEKHKCSSNYNEDFVLQLEKELVQARLSEAESQCALKEMQDKVLDIEKRNNSLPDENNIARLQEELIAVKLREAEAIMGLKELRQQVKDLEEHWQRHLARTTGRWKDPPKKNAMNELQDELMTIRLREAETQAEIREIKQRMMEMETQNQINSNHLRRAEQEVISLQEKVQYLSAQNKGLLTQLSEAKRKQAEIECKNKEEVMAVRLREADSIAAVAELRQHIAELEIQKEEGKLQGQLNKSDSNQYIGELKDQIAELNHELRCLKGQRGFSGQPPFDGIHIVNHLIGDDESFHSSDEDFIDNSLQETGVGFPLHGKSGSMSLDPAVADGSESETEDSVLETRESNQVVQKERPPRRRESYSTTV [EVI5],-0.288,0.129
MSWIPFKIGQPKKQIVPKTVERDFEREYGKLQQLEEQTRRLQKDMKKSTDADLAMSKSAVKISLDLLSNPLCEQDQDLLNMVTALDTAMKRMDAFNQEKVNQIQKTVIEPLKKFGSVFPSLNMAVKRREQALQDYRRLQAKVEKYEEKEKTGPVLAKLHQAREELRPVREDFEAKNRQLLEEMPRFYGSRLDYFQPSFESLIRAQVVYYSEMHKIFGDLSHQLDQPGHSDEQRERENEAKLSELRALSIVADD [BIN3],0.0471,0.418
MAAAADSFSGGPAGVRLPRSPPLKVLAEQLRRDAEGGPGAWRLSRAAAGRGPLDLAAVWMQGRVVMADRGEARLRDPSGDFSVRGLERVPRGRPCLVPGKYVMVMGVVQACSPEPCLQAVKMTDLSDNPIHESMWELEVEDLHRNIP [RMI2],0.168,0.374
MSWLLFLAHRVALAALPCRRGSRGFGMFYAVRRGRKTGVFLTWNECRAQVDRFPAARFKKFATEDEAWAFVRKSASPEVSEGHENQHGQESEAKASKRLREPLDGDGHESAEPYAKHMKPSVEPAPPVSRDTFSYMGDFVVVYTDGCCSSNGRRRPRAGIGVYWGPGHPLNVGIRLPGRQTNQRAEIHAACKAIEQAKTQNINKLVLYTDSMFTINGITNWVQGWKKNGWKTSAGKEVINKEDFVALERLTQGMDIQWMHVPGHSGFIGNEEADRLAREGAKQSED [RNASEH1],-0.0935,0.274
HOXC10,-0.0635,0.535
MDDIADRMRMDAGEVTLVNHNSVFKTHLLPQTGFPEDQLSLSDQQILSSRQGHLDRSFTCSTRSAAYNPSYYSDNPSSDSFLGSGDLRTFGQSANGQWRNSTPSSSSSLQKSRNSRSLYLETRKTSSGLSNSFAGKSNHHCHVSAYEKSFPIKPVPSPSWSGSCRRSLLSPKKTQRRHVSTAEETVQEEEREIYRQLLQMVTGKQFTIAKPTTHFPLHLSRCLSSSKNTLKDSLFKNGNSCASQIIGSDTSSSGSASILTNQEQLSHSVYSLSSYTPDVAFGSKDSGTLHHPHHHHSVPHQPDNLAASNTQSEGSDSVILLKVKDSQTPTPSSTFFQAELWIKELTSVYDSRARERLRQIEEQKALALQLQNQRLQEREHSVHDSVELHLRVPLEKEIPVTVVQETQKKGHKLTDSEDEFPEITEEMEKEIKNVFRNGNQDEVLSEAFRLTITRKDIQTLNHLNWLNDEIINFYMNMLMERSKEKGLPSVHAFNTFFFTKLKTAGYQAVKRWTKKVDVFSVDILLVPIHLGVHWCLAVVDFRKKNITYYDSMGGINNEACRILLQYLKQESIDKKRKEFDTNGWQLFSKKSQEIPQQMNGSDCGMFACKYADCITKDRPINFTQQHMPYFRKRMVWEILHRKLL [SENP1],0.402,-0.531
MRGPSGALWLLLALRTVLGGMEVRWCATSDPEQHKCGNMSEAFREAGIQPSLLCVRGTSADHCVQLIAAQEADAITLDGGAIYEAGKEHGLKPVVGEVYDQEVGTSYYAVAVVRRSSHVTIDTLKGVKSCHTGINRTVGWNVPVGYLVESGRLSVMGCDVLKAVSDYFGGSCVPGAGETSYSESLCRLCRGDSSGEGVCDKSPLERYYDYSGAFRCLAEGAGDVAFVKHSTVLENTDGKTLPSWGQALLSQDFELLCRDGSRADVTEWRQCHLARVPAHAVVVRADTDGGLIFRLLNEGQRLFSHEGSSFQMFSSEAYGQKDLLFKDSTSELVPIATQTYEAWLGHEYLHAMKGLLCDPNRLPPYLRWCVLSTPEIQKCGDMAVAFRRQRLKPEIQCVSAKSPQHCMERIQAEQVDAVTLSGEDIYTAGKTYGLVPAAGEHYAPEDSSNSYYVVAVVRRDSSHAFTLDELRGKRSCHAGFGSPAGWDVPVGALIQRGFIRPKDCDVLTAVSEFFNASCVPVNNPKNYPSSLCALCVGDEQGRNKCVGNSQERYYGYRGAFRCLVENAGDVAFVRHTTVFDNTNGHNSEPWAAELRSEDYELLCPNGARAEVSQFAACNLAQIPPHAVMVRPDTNIFTVYGLLDKAQDLFGDDHNKNGFKMFDSSNYHGQDLLFKDATVRAVPVGEKTTYRGWLGLDYVAALEGMSSQQCSGAAAPAPGAPLLPLLLPALAARLLPPAL [MFI2],-0.0542,-0.519

# Source: the supplement of paper PMC5998384
